# Measured values: patent US20220332804A1 (CSL INNOVATION, published 2022)
# B1: RF16-242 (antibody, human IgG4 S228P, lambda, V domains shown)
# VH: EVQLLQSGAEVKKPGESLKISCKGSGYSFTSYWIGWVRQMPGKGLEWMGIIYPGDSDTRYSPSFQGQVTISADKSISTAYLQWSSLKASDTAMYYCARRGHYGDYFDYWGQGTLVTVSS
# VL: SYELTQPPSVSVSPGQTARITCSGDALPKKYAYWYHQKSGQAPVLVIYEDRRRPSEIPERFSGSSSGTMATLTITGAQVEDEGVYFCYSRDRAGNQRVFGGGTQLTVLG
# notes: pH-dependent anti-C2 antibody from a phage display library
# What was measured:
# Experiment in all cases: SPR, antibody captured, C2 as analyte;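 note: biacore at 37 °C, anti-C2 mAbs held by immobilised goat anti-human IgG, C2 alanine or serine mutants injected, double-referenced sensorgrams fitted to a 1:1 kinetic or steady-state model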
# human C2 F689A = molecular target: T1, human C2 F689A (human, UniProt P06681 21-752)
# T1 sequence: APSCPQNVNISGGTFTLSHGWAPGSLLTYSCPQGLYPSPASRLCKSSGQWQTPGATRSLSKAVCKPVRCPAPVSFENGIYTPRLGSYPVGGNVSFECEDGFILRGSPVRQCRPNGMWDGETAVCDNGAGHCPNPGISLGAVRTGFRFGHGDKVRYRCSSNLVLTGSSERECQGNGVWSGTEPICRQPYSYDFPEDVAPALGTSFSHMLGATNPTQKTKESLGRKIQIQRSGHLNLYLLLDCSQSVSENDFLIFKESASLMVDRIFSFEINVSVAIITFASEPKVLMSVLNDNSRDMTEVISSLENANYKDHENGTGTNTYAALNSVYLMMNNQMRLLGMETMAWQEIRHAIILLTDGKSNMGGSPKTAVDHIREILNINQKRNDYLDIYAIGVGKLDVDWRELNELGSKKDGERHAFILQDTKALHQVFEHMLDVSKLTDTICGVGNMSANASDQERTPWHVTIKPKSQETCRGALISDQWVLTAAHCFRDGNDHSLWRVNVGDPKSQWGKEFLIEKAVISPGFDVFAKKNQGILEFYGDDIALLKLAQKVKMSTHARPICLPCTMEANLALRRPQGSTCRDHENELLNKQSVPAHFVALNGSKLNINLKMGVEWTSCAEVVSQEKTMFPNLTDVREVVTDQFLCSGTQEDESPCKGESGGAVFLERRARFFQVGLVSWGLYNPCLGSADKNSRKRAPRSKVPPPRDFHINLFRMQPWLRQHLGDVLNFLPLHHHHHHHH
# human C2 T317A = molecular target: T2, human C2 T317A (human, UniProt P06681 21-752)
# T2 sequence: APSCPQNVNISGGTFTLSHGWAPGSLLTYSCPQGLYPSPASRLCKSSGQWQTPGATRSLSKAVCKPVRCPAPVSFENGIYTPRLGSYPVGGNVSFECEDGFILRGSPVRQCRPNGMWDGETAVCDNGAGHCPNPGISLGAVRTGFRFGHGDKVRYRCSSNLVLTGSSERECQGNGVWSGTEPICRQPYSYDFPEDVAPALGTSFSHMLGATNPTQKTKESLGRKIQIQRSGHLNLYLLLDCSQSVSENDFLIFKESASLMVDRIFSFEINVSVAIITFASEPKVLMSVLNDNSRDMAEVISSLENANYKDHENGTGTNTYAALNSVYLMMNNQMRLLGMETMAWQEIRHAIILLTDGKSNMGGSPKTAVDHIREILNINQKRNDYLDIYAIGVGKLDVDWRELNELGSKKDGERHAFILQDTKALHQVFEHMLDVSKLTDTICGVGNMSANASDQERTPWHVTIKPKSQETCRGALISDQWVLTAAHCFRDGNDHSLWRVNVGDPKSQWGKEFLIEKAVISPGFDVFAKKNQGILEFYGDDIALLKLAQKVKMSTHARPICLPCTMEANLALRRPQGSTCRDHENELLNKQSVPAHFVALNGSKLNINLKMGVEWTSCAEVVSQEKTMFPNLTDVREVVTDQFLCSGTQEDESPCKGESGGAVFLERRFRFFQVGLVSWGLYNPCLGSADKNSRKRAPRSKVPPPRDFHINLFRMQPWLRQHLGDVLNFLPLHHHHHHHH
# human C2 H331A = molecular target: T3, human C2 H331A (human, UniProt P06681 21-752)
# T3 sequence: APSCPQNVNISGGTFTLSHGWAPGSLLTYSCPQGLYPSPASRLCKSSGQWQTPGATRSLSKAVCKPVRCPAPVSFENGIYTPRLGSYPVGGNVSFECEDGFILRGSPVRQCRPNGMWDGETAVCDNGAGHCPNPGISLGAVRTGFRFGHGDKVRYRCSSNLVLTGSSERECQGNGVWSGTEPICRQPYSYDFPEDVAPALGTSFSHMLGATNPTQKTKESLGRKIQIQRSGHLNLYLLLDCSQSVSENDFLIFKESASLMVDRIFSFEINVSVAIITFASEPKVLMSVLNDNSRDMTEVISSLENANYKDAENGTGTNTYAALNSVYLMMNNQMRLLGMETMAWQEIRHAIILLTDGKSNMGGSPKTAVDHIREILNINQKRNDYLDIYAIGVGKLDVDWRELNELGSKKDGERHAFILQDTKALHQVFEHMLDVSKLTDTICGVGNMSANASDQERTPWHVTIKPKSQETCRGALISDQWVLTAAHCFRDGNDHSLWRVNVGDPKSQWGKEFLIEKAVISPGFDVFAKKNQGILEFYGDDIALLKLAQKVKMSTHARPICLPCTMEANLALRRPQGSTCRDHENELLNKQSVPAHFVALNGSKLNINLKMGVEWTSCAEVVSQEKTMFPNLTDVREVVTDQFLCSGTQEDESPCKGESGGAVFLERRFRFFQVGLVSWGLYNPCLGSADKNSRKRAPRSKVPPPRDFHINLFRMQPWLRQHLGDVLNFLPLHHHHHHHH
# human C2 I438A = molecular target: T4, human C2 I438A (human, UniProt P06681 21-752)
# T4 sequence: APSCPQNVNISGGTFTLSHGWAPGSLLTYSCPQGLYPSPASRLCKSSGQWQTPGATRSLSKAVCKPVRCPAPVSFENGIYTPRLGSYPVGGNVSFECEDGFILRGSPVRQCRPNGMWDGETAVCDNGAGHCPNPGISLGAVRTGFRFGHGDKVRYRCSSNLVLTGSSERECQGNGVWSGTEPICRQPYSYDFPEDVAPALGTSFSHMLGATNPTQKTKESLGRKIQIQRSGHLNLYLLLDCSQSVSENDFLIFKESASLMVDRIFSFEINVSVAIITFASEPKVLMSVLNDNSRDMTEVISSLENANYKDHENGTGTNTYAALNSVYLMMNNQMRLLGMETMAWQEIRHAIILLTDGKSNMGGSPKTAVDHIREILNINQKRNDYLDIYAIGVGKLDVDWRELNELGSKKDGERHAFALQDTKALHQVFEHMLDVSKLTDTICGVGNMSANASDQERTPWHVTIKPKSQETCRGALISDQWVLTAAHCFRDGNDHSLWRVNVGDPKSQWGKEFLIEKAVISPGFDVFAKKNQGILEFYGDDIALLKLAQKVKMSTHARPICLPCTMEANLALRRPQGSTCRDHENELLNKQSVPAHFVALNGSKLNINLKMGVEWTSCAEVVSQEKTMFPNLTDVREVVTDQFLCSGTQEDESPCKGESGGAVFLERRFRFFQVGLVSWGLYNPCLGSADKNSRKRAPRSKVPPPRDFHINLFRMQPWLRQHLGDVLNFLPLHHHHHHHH
binder,measurement,setting,value
B1,Kd,human C2 F689A,6.3 nM
same,Kd,human C2 T317A,5.9 nM
same,Kd,human C2 H331A,191 nM
same,Kd,human C2 I438A,8.7 nM
